Key:
[1] = Thioflavin T; format: physicochemical; details: 2.5 μM Aβ in PBS, 20 μM ThT, room temperature, shaking 100 rpm between reads
[2] = FCS size characterization; format: physicochemical; details: individual 30 s FCS measurements, 10 per sample; three preparations
[3] = system: immortalized human cortical astrocytes; assay: Cell viability of astrocytes; format: cell-based; details: 4 μM Aβ, 24 hours, 37°C; three biological replicates

| Substance | ThT aggregation t1/2 [1] [h] | CV of sizes within the same preparation [2] [%] | toxicity of Aβ to astrocytes (cell viability) [3] |
| --- | --- | --- | --- |
| Aβ monomers: Aβ42 peptide with methionine as N-terminal residue, recombinantly expressed in E. coli, SEC-purified aggregate-free monomer | 1.32 ± 0.13 | – | – |
| Aβ oligomers: stable pre-formed Aβ oligomers prepared by the protocol of Barghorn et al. with SDS | – | 17 ± 2 | significantly higher toxicity |
